Data set [1] has as its target T1, dSNF1-101 (RRM1) (UniProt P43332 1-101).
T1 sequence: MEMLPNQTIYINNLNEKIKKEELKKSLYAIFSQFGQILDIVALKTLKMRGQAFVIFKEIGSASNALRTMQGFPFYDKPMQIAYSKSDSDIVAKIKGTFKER
In words: filter binding; without dU2A'; ITC: 150 mM KCl, 1 mM MgCl2, 20 mM HEPES-NaOH pH 7.5, 5% glycerol, 10 C; NMR: 50 mM KCl, 20 mM sodium cacodylate pH 6.5, 2 mM EDTA, 23 C; filter binding: KCl varied, other conditions not stated. As to conditions: protein: recombinant; tags: none stated; label: 32P internal; hairpin.

In data set [2] the target is T1, dSNF1-101 (RRM1). In words: NMR chemical shift perturbation; 300 uM protein, 700 uM RNA; ITC: 150 mM KCl, 1 mM MgCl2, 20 mM HEPES-NaOH pH 7.5, 5% glycerol, 10 C; NMR: 50 mM KCl, 20 mM sodium cacodylate pH 6.5, 2 mM EDTA, 23 C; filter binding: KCl varied, other conditions not stated. The conditions noted are these: protein: recombinant; tags: none stated; hairpin.
Data set [3] concerns the target T2, dSNF1-96 (RRM1) (Drosophila melanogaster, UniProt P43332 1-96).
T2 sequence: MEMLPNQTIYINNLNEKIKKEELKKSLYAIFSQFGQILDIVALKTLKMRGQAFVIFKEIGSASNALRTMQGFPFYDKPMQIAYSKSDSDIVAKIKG
In words: ITC; 1 mM Mg2+, 10 C; n 0.781; ITC: 150 mM KCl, 1 mM MgCl2, 20 mM HEPES-NaOH pH 7.5, 5% glycerol, 10 C; NMR: 50 mM KCl, 20 mM sodium cacodylate pH 6.5, 2 mM EDTA, 23 C; filter binding: KCl varied, other conditions not stated. The conditions noted are these: protein: recombinant; tags: N-terminal His6, TEV-cleaved; hairpin, 11-nt loop, U:G closing pair, blunt. On the technique in general: In ITC the heat of successive injections is recorded.

Data set [4] addresses T2, dSNF1-96 (RRM1). In words: ITC; 1 mM Mg2+, 10 C; n 0.894; ITC: 150 mM KCl, 1 mM MgCl2, 20 mM HEPES-NaOH pH 7.5, 5% glycerol, 10 C; NMR: 50 mM KCl, 20 mM sodium cacodylate pH 6.5, 2 mM EDTA, 23 C; filter binding: KCl varied, other conditions not stated. The conditions noted are these: protein: recombinant; tags: N-terminal His6, TEV-cleaved; hairpin, 10-nt loop, 9-bp blunt stem.

The target of data set [5] is T2, dSNF1-96 (RRM1). In words: crystal structure; 2.0 A; ITC: 150 mM KCl, 1 mM MgCl2, 20 mM HEPES-NaOH pH 7.5, 5% glycerol, 10 C; NMR: 50 mM KCl, 20 mM sodium cacodylate pH 6.5, 2 mM EDTA, 23 C; filter binding: KCl varied, other conditions not stated. The conditions noted are these: protein: recombinant; tags: N-terminal His6, TEV-cleaved; hairpin, blunt, 10-nt loop.
Data set [6] has as its target Drosophila U2A′ (dU2A′), triple cysteine variant, produced apart from dSNF (Drosophila melanogaster) (UniProt Q9V4Q8). In words: ITC; dU2A′ as the sample (2.5 µM), dSNF^1-101 as titrant (25 µM); 22 °C; 50 mM KCl, 100 mM arginine, 10 mM sodium cacodylate, pH 6.5 (methods) or pH 7 (results).

B1: dU2SLIV G13C (structured_RNA)
RNA: GGCCGGUAUUGCACUACCGCCGGGUCC
In the case of B1, the binding signal with dSNF1-101 (RRM1) [1] was 16 fold higher affinity than wt N6.

B2: dU2SLIV G13A (structured_RNA)
RNA: GGCCGGUAUUGCAAUACCGCCGGGUCC
For the molecule B2, in the data set with dSNF1-101 (RRM1) [1], the binding signal was 200 fold lower affinity than wt N6.

B3: dU1SLII (T7, NMR) (structured_RNA)
RNA: GGCCGGCAUUGCACCACGCGCCGGGUCC
As for B3, the binding result with dSNF1-101 (RRM1) [2] was “binds”.

B4: dU2SLIV (ITC) (structured_RNA)
RNA: CCAGGACGUAUUGCAGUACCGCGUCCUGG
Broadly, the Kd is the constant that tells how readily two partners part at equilibrium. In the case of B4, in the data set with dSNF1-96 (RRM1) [3], the dissociation constant Kd was 782 nM.

B5: dU2SLIV G10A (structured_RNA)
RNA: GGCCGGUAUUACAGUACCGCCGGGUCC
For B5, the binding signal with dSNF1-101 (RRM1) [1] was 1000 fold lower affinity than wt N6.

B6: dU1SLII (ITC) (structured_RNA)
RNA: CCAGGACGCAUUGCACCUCGCGUCCUGG
On to B6, for which the Kd in the data set with dSNF1-96 (RRM1) [4] is 34 nM.

B7: dU1SLII 22-mer (crystal) (structured_RNA)
RNA: GGCCGCAUUGCACCUCGCGGCC
Regarding B7, the binding result in the data set with dSNF1-96 (RRM1) [5] is on record as “binds”.

B8: Drosophila melanogaster SNF RRM1, residues 1-101 (dSNF^1-101) (domain or fragment)
chain: T1 sequence
For the molecule B8, in data set [6], the Kd was 4.2 nM and the dH is -241 kcal/mol.

The values are drawn from article PMC5992148, “Molecular principles underlying dual RNA specificity in the Drosophila SNF protein”.
